The record followed here is US20030040042A1, “Recombinant fibroblast growth factors” (published 2003).

Assay [1] addresses FGF receptor on Balb/c 3T3 cells.
The target is the same in assay [2]. The source holds these as a separate data set.
The target is the same in assay [3]. In words: competition with [125I]-bFGF on Balb/c 3T3 cells.
Assay [4] has the same target. In words: competition with [125I]-bFGF on Balb/c 3T3 cells, no heparin.
Assay [5] deals with FGF receptor on bovine adrenal cortex capillary endothelial (ACE) cells (bovine) (UniProt P12820).
Assay [6] concerns the target FGF receptor on Balb/c 3T3 cells. The assay can be described thus: competition with [125I]-bFGF on Balb/c 3T3 cells, 1 ug/ml heparin.
Assay [7] has as its target T1, FGF receptor on bovine adrenal cortex capillary endothelial (ACE) cells (bovine, UniProt P12820).
T1 sequence: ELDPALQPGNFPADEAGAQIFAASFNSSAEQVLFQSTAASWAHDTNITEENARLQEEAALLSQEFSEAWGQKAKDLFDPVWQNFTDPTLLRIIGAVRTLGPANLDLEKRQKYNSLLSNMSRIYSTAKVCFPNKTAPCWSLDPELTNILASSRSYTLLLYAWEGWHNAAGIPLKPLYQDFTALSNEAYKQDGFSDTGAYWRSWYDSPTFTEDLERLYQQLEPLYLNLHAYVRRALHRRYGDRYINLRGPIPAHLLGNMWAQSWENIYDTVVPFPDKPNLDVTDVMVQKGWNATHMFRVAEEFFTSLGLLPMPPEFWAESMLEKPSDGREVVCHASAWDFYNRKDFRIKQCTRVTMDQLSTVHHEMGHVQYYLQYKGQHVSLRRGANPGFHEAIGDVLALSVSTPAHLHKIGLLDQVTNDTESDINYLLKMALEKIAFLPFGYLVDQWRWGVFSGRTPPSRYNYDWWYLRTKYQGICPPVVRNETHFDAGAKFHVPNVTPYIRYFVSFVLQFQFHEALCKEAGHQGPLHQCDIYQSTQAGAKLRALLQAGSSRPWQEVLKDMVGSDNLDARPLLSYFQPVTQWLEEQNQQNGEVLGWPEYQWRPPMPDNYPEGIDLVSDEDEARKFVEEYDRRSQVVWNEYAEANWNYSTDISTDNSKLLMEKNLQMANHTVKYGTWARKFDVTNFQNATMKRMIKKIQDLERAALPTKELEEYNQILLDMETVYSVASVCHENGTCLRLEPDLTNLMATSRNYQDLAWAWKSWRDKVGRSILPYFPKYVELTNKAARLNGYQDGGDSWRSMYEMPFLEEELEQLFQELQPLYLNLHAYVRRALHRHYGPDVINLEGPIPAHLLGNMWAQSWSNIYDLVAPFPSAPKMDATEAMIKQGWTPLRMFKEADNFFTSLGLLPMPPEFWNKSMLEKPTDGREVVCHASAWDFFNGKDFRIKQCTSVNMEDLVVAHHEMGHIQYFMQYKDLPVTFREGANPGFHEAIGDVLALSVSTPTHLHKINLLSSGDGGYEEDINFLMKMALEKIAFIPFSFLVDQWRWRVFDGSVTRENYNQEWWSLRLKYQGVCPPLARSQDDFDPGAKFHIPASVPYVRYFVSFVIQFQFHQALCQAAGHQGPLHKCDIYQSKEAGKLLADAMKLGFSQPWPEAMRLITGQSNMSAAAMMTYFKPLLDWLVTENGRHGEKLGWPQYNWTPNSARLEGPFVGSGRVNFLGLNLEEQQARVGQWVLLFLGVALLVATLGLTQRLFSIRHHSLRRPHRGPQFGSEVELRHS
In words: cell-based or functional assay.

Bounds are passed on as bounds.

In the case of “bFGF(25-155) (from UniProt P09038-2) (ligand)”, in assay [1], the inhibition of the activity of 1 ng/ml wild type bFGF in the 3T3 mitogenic assay, no heparin was over 95%. Besides, in assay [2], the 3T3 Mito., 1 ug/ml heparin (ED50 wild type / ED50 analog x 100%) (% of wild type) was found to be 100 and the 3T3 Mito., no heparin (ED50 wild type / ED50 analog x 100%) (% of wild type) was 50.

Regarding “recombinant human basic FGF (wild type) (from UniProt P09038-2) (ligand)”, the EC50 (commonly the concentration giving half of the maximal effect) in assay [3] was found to be 0.01 µg/mL. In assay [4], the FGF-Rc Comp. (ED50 analog / ED50 wild type FGF) is 1. Moreover, in assay [1], the 3T3 mitogenic assay, ED50 in the absence of bFGF(25-155) is under 1 ng/mL; the 3T3 mitogenic assay, ED50 in the presence of 10 ng/ml bFGF(25-155) is 10 ng/mL; the 3T3 mitogenic assay, ED50 in the presence of 100 ng/ml bFGF(25-155) was found to be 100 ng/mL. In assay [2], the 3T3 Mito. (thymidine uptake), EC50 (ED50) turned out to be 630 pg/mL; the 3T3 Mito., 1 ug/ml heparin (ED50 wild type / ED50 analog x 100%) (% of wild type) came out at 100; the 3T3 Mito., no heparin (ED50 wild type / ED50 analog x 100%) (% of wild type) came out at 100. For the same molecule, in assay [5], the ACE Mito., 1 ug/ml heparin (ED50 wild type / ED50 analog x 100%) (% of wild type) turned out to be 100; the ACE Mito., no heparin (ED50 wild type / ED50 analog x 100%) (% of wild type) is 100; the ACE cell proliferation, EC50 (ED50) was found to be 160 pg/mL. Further, the FGF-Rc Comp. (ED50 analog / ED50 wild type FGF) in assay [6] was determined as 1.

B1: bFGF-C34/78/101S (ligand)
chain: MAAGSITTLPALPEDGGSGAFPPGHFKDPKRLYSKNGGFFLRIHPDGRVDGVREKSDPHIKLQLQAEERGVVSIKGVSANRYLAMKEDGRLLASKCVTDESFFFERLESNNYNTYRSRKYTSWYVALKRTGQYKLGSKTGPGQKAILFLPMSAKS
In assay [4], B1 gave an FGF-Rc Comp. (ED50 analog / ED50 wild type FGF) of 0.45. In assay [7], the “ACE Mito., 1 ug/ml heparin (ED50 wild type / ED50 analog x 100%)” value is 72 % of wild type and the “ACE Mito., no heparin (ED50 wild type / ED50 analog x 100%)” value is 2 % of wild type. In assay [2], the 3T3 Mito., 1 ug/ml heparin (ED50 wild type / ED50 analog x 100%) (% of wild type) was determined as 144 and the 3T3 Mito., no heparin (ED50 wild type / ED50 analog x 100%) (% of wild type) is 65. The FGF-Rc Comp. (ED50 analog / ED50 wild type FGF) in assay [6] worked out at 0.5.

B2: bFGF-C78/96/101S (ligand)
chain: MAAGSITTLPALPEDGGSGAFPPGHFKDPKRLYCKNGGFFLRIHPDGRVDGVREKSDPHIKLQLQAEERGVVSIKGVSANRYLAMKEDGRLLASKSVTDESFFFERLESNNYNTYRSRKYTSWYVALKRTGQYKLGSKTGPGQKAILFLPMSAKS
Regarding B2, in assay [7], the “ACE Mito., 1 ug/ml heparin (ED50 wild type / ED50 analog x 100%)” value was 125 % of wild type and the “ACE Mito., no heparin (ED50 wild type / ED50 analog x 100%)” value is 23 % of wild type.

B3: bFGF-C34/78/96/101S (ligand)
chain: MAAGSITTLPALPEDGGSGAFPPGHFKDPKRLYSKNGGFFLRIHPDGRVDGVREKSDPHIKLQLQAEERGVVSIKGVSANRYLAMKEDGRLLASKSVTDESFFFERLESNNYNTYRSRKYTSWYVALKRTGQYKLGSKTGPGQKAILFLPMSAKS
Take B3: the values for the FGF-Rc Comp. (ED50 analog / ED50 wild type FGF) in assay [4] and in assay [6] were 1 and 0.5, respectively. For the same molecule, the “ACE Mito., 1 ug/ml heparin (ED50 wild type / ED50 analog x 100%)” value in assay [7] was 119 % of wild type. The “ACE Mito., no heparin (ED50 wild type / ED50 analog x 100%)” value in assay [7] is 7 % of wild type.
